T1: CD5 on human T cells (autologous and allogeneic Pan-T cells) and on the T-ALL cell line CCRF-CEM (human, UniProt P06127 25-495)
T1 sequence (looked up): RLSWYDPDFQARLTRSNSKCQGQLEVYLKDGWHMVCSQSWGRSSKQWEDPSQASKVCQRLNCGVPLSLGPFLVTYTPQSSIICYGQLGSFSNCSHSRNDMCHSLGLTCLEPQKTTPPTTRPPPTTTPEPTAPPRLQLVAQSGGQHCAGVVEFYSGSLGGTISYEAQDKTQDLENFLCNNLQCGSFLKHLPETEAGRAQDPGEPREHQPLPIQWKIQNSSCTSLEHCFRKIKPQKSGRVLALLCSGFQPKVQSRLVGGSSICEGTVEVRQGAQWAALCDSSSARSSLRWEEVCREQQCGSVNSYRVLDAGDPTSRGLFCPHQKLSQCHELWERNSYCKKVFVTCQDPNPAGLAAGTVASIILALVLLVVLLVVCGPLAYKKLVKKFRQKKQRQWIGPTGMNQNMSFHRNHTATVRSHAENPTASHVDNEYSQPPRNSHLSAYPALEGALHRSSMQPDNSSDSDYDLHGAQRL

B1: CD5/CD33 Dual-CAR, construct S037 (other)
chain: NIQLVQSGPELKKPGETVKISCKASGYTFTNYGMNWVKQAPGKGLRWMGWINTHTGEPTYADDFKGRFAFSLETSASTAYLQINNLKNEDTATYFCTRRGYDWYFDVWGAGTTVTVSSGGGGSDIQMTQSPSSLSASVGDRVTITCRASESVDNYGISFMNWFQQKPGKAPKLLIYAASNQGSGVPSRFSGSGSGTDFTLTISSLQPDDFATYYCQQSKEVPWTFGQGTKVEIKGSTSGSGKPGSGEGSTKGQVQLVQSGAEVKKPGSSVKVSCKASGYTFTDYNMHWVRQAPGQGLEWIGYIYPYNGGTGYNQKFKSKATITADESTNTAYMELSSLRSEDTAVYYCARGRPAMDYWGQGTLVTVSSGGGGSDIKMTQSPSSMYASLGERVTITCKASQDINSYLSWFHHKPGKSPKTLIYRANRLVDGVPSRFSGSGSGQDYSLTISSLDYEDMGIYYCQQYDESPWTFGGGTKLEMKASTTTPAPRPPTPAPTIASQPLSLRPEACRPAAGGAVHTRGLDFACDIYIWAPLAGTCGVLLLSLVITLYCKRGRKKLLYIFKQPFMRPVQTTQEEDGCSCRFPEEEEGGCELRVKFSRSADAPAYKQGQNQLYNELNLGRREEYDVLDKRRGRDPEMGGKPRRKNPQEGLYNELQKDKMAEAYSEIGMKGERRRGKGHDGLYQGLSTATKDTYDALHMQALPPR
B2: CD5/CD33 Dual-CAR, construct S042 (other)
chain: DIQMTQSPSSLSASVGDRVTITCRASESVDNYGISFMNWFQQKPGKAPKLLIYAASNQGSGVPSRFSGSGSGTDFTLTISSLQPDDFATYYCQQSKEVPWTFGQGTKVEIKGGGGSEIQLVQSGGGLVKPGGSVRISCAASGYTFTNYGMNWVRQAPGKGLEWMGWINTHTGEPTYADSFKGRFTFSLDDSKNTAYLQINSLRAEDTAVYFCTRRGYDWYFDVWGQGTTVTVSSGSTSGSGKPGSGEGSTKGDIQMTQSPSSLSASVGDRVTITCRASQDINSYLSWFQQKPGKAPKTLIYRANRLESGVPSRFSGSGSGTDYTLTISSLQYEDFGIYYCQQYDESPWTFGGGTKLEIKGGGGSQVQLVQSGAEVKKPGSSVKVSCKASGYTFTDYNMHWVRQAPGQGLEWIGYIYPYNGGTGYNQKFKSKATITADESTNTAYMELSSLRSEDTAVYYCARGRPAMDYWGQGTLVTVSSASTTTPAPRPPTPAPTIASQPLSLRPEACRPAAGGAVHTRGLDFACDIYIWAPLAGTCGVLLLSLVITLYCKRGRKKLLYIFKQPFMRPVQTTQEEDGCSCRFPEEEEGGCELRVKFSRSADAPAYKQGQNQLYNELNLGRREEYDVLDKRRGRDPEMGGKPRRKNPQEGLYNELQKDKMAEAYSEIGMKGERRRGKGHDGLYQGLSTATKDTYDALHMQALPPR
B3: CD5/CD33 Dual-CAR, construct S040 (other)
chain: DIQMTQSPSSLSASVGDRVTITCRASQDINSYLSWFQQKPGKAPKTLIYRANRLESGVPSRFSGSGSGTDYTLTISSLQYEDFGIYYCQQYDESPWTFGGGTKLEIKGGGGSQVQLVQSGAEVKKPGSSVKVSCKASGYTFTDYNMHWVRQAPGQGLEWIGYIYPYNGGTGYNQKFKSKATITADESTNTAYMELSSLRSEDTAVYYCARGRPAMDYWGQGTLVTVSSGSTSGSGKPGSGEGSTKGDIQMTQSPSSLSASVGDRVTITCRASESVDNYGISFMNWFQQKPGKAPKLLIYAASNQGSGVPSRFSGSGSGTDFTLTISSLQPDDFATYYCQQSKEVPWTFGQGTKVEIKGGGGSEIQLVQSGGGLVKPGGSVRISCAASGYTFTNYGMNWVRQAPGKGLEWMGWINTHTGEPTYADSFKGRFTFSLDDSKNTAYLQINSLRAEDTAVYFCTRRGYDWYFDVWGQGTTVTVSSASTTTPAPRPPTPAPTIASQPLSLRPEACRPAAGGAVHTRGLDFACDIYIWAPLAGTCGVLLLSLVITLYCKRGRKKLLYIFKQPFMRPVQTTQEEDGCSCRFPEEEEGGCELRVKFSRSADAPAYKQGQNQLYNELNLGRREEYDVLDKRRGRDPEMGGKPRRKNPQEGLYNELQKDKMAEAYSEIGMKGERRRGKGHDGLYQGLSTATKDTYDALHMQALPPR
B4: CD5/CD33 Dual-CAR, construct S041 (other)
chain: EIQLVQSGGGLVKPGGSVRISCAASGYTFTNYGMNWVRQAPGKGLEWMGWINTHTGEPTYADSFKGRFTFSLDDSKNTAYLQINSLRAEDTAVYFCTRRGYDWYFDVWGQGTTVTVSSGGGGSDIQMTQSPSSLSASVGDRVTITCRASESVDNYGISFMNWFQQKPGKAPKLLIYAASNQGSGVPSRFSGSGSGTDFTLTISSLQPDDFATYYCQQSKEVPWTFGQGTKVEIKGSTSGSGKPGSGEGSTKGQVQLVQSGAEVKKPGSSVKVSCKASGYTFTDYNMHWVRQAPGQGLEWIGYIYPYNGGTGYNQKFKSKATITADESTNTAYMELSSLRSEDTAVYYCARGRPAMDYWGQGTLVTVSSGGGGSDIQMTQSPSSLSASVGDRVTITCRASQDINSYLSWFQQKPGKAPKTLIYRANRLESGVPSRFSGSGSGTDYTLTISSLQYEDFGIYYCQQYDESPWTFGGGTKLEIKASTTTPAPRPPTPAPTIASQPLSLRPEACRPAAGGAVHTRGLDFACDIYIWAPLAGTCGVLLLSLVITLYCKRGRKKLLYIFKQPFMRPVQTTQEEDGCSCRFPEEEEGGCELRVKFSRSADAPAYKQGQNQLYNELNLGRREEYDVLDKRRGRDPEMGGKPRRKNPQEGLYNELQKDKMAEAYSEIGMKGERRRGKGHDGLYQGLSTATKDTYDALHMQALPPR
B5: CD5/CD33 Dual-CAR, construct S038 (other)
chain: DIQMTQSPSSLSASVGDRVTITCRASESVDNYGISFMNWFQQKPGKAPKLLIYAASNQGSGVPSRFSGSGSGTDFTLTISSLQPDDFATYYCQQSKEVPWTFGQGTKVEIKGGGGSNIQLVQSGPELKKPGETVKISCKASGYTFTNYGMNWVKQAPGKGLRWMGWINTHTGEPTYADDFKGRFAFSLETSASTAYLQINNLKNEDTATYFCTRRGYDWYFDVWGAGTTVTVSSGSTSGSGKPGSGEGSTKGDIKMTQSPSSMYASLGERVTITCKASQDINSYLSWFHHKPGKSPKTLIYRANRLVDGVPSRFSGSGSGQDYSLTISSLDYEDMGIYYCQQYDESPWTFGGGTKLEMKGGGGSQVQLVQSGAEVKKPGSSVKVSCKASGYTFTDYNMHWVRQAPGQGLEWIGYIYPYNGGTGYNQKFKSKATITADESTNTAYMELSSLRSEDTAVYYCARGRPAMDYWGQGTLVTVSSASTTTPAPRPPTPAPTIASQPLSLRPEACRPAAGGAVHTRGLDFACDIYIWAPLAGTCGVLLLSLVITLYCKRGRKKLLYIFKQPFMRPVQTTQEEDGCSCRFPEEEEGGCELRVKFSRSADAPAYKQGQNQLYNELNLGRREEYDVLDKRRGRDPEMGGKPRRKNPQEGLYNELQKDKMAEAYSEIGMKGERRRGKGHDGLYQGLSTATKDTYDALHMQALPPR
B6: CD5/CD33 Dual-CAR, construct S036 (other)
chain: DIKMTQSPSSMYASLGERVTITCKASQDINSYLSWFHHKPGKSPKTLIYRANRLVDGVPSRFSGSGSGQDYSLTISSLDYEDMGIYYCQQYDESPWTFGGGTKLEMKGGGGSQVQLVQSGAEVKKPGSSVKVSCKASGYTFTDYNMHWVRQAPGQGLEWIGYIYPYNGGTGYNQKFKSKATITADESTNTAYMELSSLRSEDTAVYYCARGRPAMDYWGQGTLVTVSSGSTSGSGKPGSGEGSTKGDIQMTQSPSSLSASVGDRVTITCRASESVDNYGISFMNWFQQKPGKAPKLLIYAASNQGSGVPSRFSGSGSGTDFTLTISSLQPDDFATYYCQQSKEVPWTFGQGTKVEIKGGGGSNIQLVQSGPELKKPGETVKISCKASGYTFTNYGMNWVKQAPGKGLRWMGWINTHTGEPTYADDFKGRFAFSLETSASTAYLQINNLKNEDTATYFCTRRGYDWYFDVWGAGTTVTVSSASTTTPAPRPPTPAPTIASQPLSLRPEACRPAAGGAVHTRGLDFACDIYIWAPLAGTCGVLLLSLVITLYCKRGRKKLLYIFKQPFMRPVQTTQEEDGCSCRFPEEEEGGCELRVKFSRSADAPAYKQGQNQLYNELNLGRREEYDVLDKRRGRDPEMGGKPRRKNPQEGLYNELQKDKMAEAYSEIGMKGERRRGKGHDGLYQGLSTATKDTYDALHMQALPPR
B7: CD5/CD33 Dual-CAR, construct S039 (other)
chain: QVQLVQSGAEVKKPGSSVKVSCKASGYTFTDYNMHWVRQAPGQGLEWIGYIYPYNGGTGYNQKFKSKATITADESTNTAYMELSSLRSEDTAVYYCARGRPAMDYWGQGTLVTVSSGGGGSDIKMTQSPSSMYASLGERVTITCKASQDINSYLSWFHHKPGKSPKTLIYRANRLVDGVPSRFSGSGSGQDYSLTISSLDYEDMGIYYCQQYDESPWTFGGGTKLEMKGSTSGSGKPGSGEGSTKGNIQLVQSGPELKKPGETVKISCKASGYTFTNYGMNWVKQAPGKGLRWMGWINTHTGEPTYADDFKGRFAFSLETSASTAYLQINNLKNEDTATYFCTRRGYDWYFDVWGAGTTVTVSSGGGGSDIQMTQSPSSLSASVGDRVTITCRASESVDNYGISFMNWFQQKPGKAPKLLIYAASNQGSGVPSRFSGSGSGTDFTLTISSLQPDDFATYYCQQSKEVPWTFGQGTKVEIKASTTTPAPRPPTPAPTIASQPLSLRPEACRPAAGGAVHTRGLDFACDIYIWAPLAGTCGVLLLSLVITLYCKRGRKKLLYIFKQPFMRPVQTTQEEDGCSCRFPEEEEGGCELRVKFSRSADAPAYKQGQNQLYNELNLGRREEYDVLDKRRGRDPEMGGKPRRKNPQEGLYNELQKDKMAEAYSEIGMKGERRRGKGHDGLYQGLSTATKDTYDALHMQALPPR

Molecular target: T1, CD5 on human T cells (autologous and …)
Test: cell-based or functional assay

Binder | elimination of CCRF-CEM cells after 18 hours (luciferase-based killing assay) [%]
B1 | ~100
B2 | ~100
B3 | ~100
B4 | ~100
B5 | ~100
B6 | ~100
B7 | ~100
